Experimental data reported in US20040234990A1, “Method of screening alzheimer's disease-associated gene” (priority 2001, published 2004).

Tests used:
[1] = tested on: A5-9 cells; assay: Puromycin sensitivity of the parent strain; format: cell-based, mouse
Description: (§1) The DNA that controls the production of Aβ is investigated as follows. First, the DNA library is transfected to the cell line where the two recombinant gene constructs described above are introduced (hereinafter referred to as the parent strain). Thereafter, for example, when a drug resistant gene is used as the selection marker, a cell bearing the DNA to enhance the concentration of the corresponding drug and become resistant in the presence of the drug even at a high concentration is selected. […]
(§2) The A5-9 cells or A5-9-PS1 cells described in EXAMPLE 4, to which the human hippocampus cDNA library was transfected through the infection with retrovirus, were cultured in the presence of puromycin of a high concentration (A5-9 cells, 25 μg/ml; A5-9-PS1 cells, 9 μg/ml). […] The concentrations of puromycin used were determined based on the respective minimum puromycin concentrations of 20 μg/ml and 5 μg/ml, at which the A5-9 cells and A5-9-PS1 cells as the parent strain were extinct. […] That is, Aβ was detected as follows. The Aβ secreted in a medium by incubation for 3 days (initial cell concentration of 2×10^5 cells/ml, medium of 3 ml) was immunoprecipitated by anti-Aβ monoclonal antibody 6E10 and the deposits were detected by high sensitive western blotting using anti-Aβ antibody. […]

[2] = tested on: A5-9-PS1 cells; assay: Puromycin sensitivity of the parent strain; format: cell-based, mouse
Description: as §1, §2

[3] = tested on: HEK293 cells where APP and PS1 were overexpressed; assay: Aβ secreted into the medium by HEK293 cells transfected with cDNA in pcDNA3, assayed by ELISA; format: cell-based; details: for Fold increase in Aβ42 versus vector control: rate of increase compared to vector-alone control
Description: From the clones selected in EXAMPLE 5 above to increase the production of Aβ, human hippocampus-derived cDNA was amplified by PCR using virus vector pMX sites as primers (which were identified to be sense strand primer, SEQ ID NO: 16; […] and antisense strand primer, SEQ ID NO: 17; […]). The cDNA obtained was ligated with vector pcDNA3 (Invitrogen, Inc.), which was transfected to 4×10^5 cells of HEK293 cells (Tomita S., et al., J. Biol. Chem. 273: 19304-19310, 1998; Tomita S., et al., J. Biol. Chem. 275: 13056-13060, 2000) where APP and PS1 were overexpressed. One day after, the medium was changed to a new medium followed by incubation for 24 hours. The amount of Aβ selected in the medium was assayed by ELISA (Asami-Odaka, A. et al., 34:10272, 1995). It was found so far that 3 kinds of human hippocampus-derived cDNAs increased the amount of Aβ produced (TABLE 2). One of them was identified to be identical with human cDNA (accession No. AAH06223) registered in Genbank. In the following procedures of the present invention, this cDNA was named gene A (SEQ ID NO: 4) and the protein encoding the cDNA was named Protein A (SEQ ID NO: 1). […] The one found to be a gene to control the production of Aβ was a protein, Herp (Kokame K. et al., J. Biol. Chem. 275: 3286, 2000; accession no. AB034989) (cDNA: SEQ ID NO: 5, protein: SEQ ID NO: 2), which was localized in the endoplasmic reticulum and its expression was induced by endoplasmic reticulum stress but its function was unknown. Further the other one found to be a gene to control the production of Aβ was cDNA (cDNA: SEQ ID NO: 6, protein: SEQ ID NO: 3) containing the 1-389 internal sequence from the N terminus of 5-lipoxygenase (accession no. XM 005818).

[4] = Aβ in medium after 24 hours incubation, mean of 2 samples, vector control value in parenthesis

COc1ccc(C[C@H](N)C(=O)N[C@H]2[C@@H](O)[C@H](n3cnc4c(N(C)C)ncnc43)O[C@@H]2CO)cc1 [puromycin]
minimum puromycin concentration at which the cells were extinct [1]: 20 µg/mL
minimum puromycin concentration at which the cells were extinct [2]: 5 µg/mL

B1: Protein A: human cDNA (Genbank AAH06223, SEQ ID NO: 4) encoding Protein A (SEQ ID NO: 1), function unknown (nucleic acid)
DNA: ATGTCGACGGCGGCGGTTCCGGAGCTGAAGCAGATCAGCCGGGTGGAGGCGATGCGCCTAGGGCCGGGCTGGAGCCACTCGTGCCACGCCATGCTGTACGCCGCCAACCCTGGGCAGCTCTTCGGCCGCATCCCCATGCGCTTCTCGGTGCTGATGCAGATGCGTTTCGACGGGCTGCTGGGCTTCCCCGGGGGCTTCGTGGACCGGCGCTTCTGGTCGCTGGAGGACGGCCTGAACCGGGTGCTGGGCCTGGGCCTGGGCTGCCTGCGCCTCACCGAGGCCGACTACCTGAGCTCGCACCTGACCGAGGGCCCACACCGCGTCGTGGCGCACCTGTACGCGCGGCAGCTGACGCTGGAGCAGCTGCACGCCGTGGAGATCAGCGCGGTGCACTCGCGCGACCACGGCCTGGAGGTGCTGGGCCTCGTGCGGGTCCCGCTGTACACCCAGAAGGACCGAGTCGGAGGCTTCCCCAACTTCCTGAGCAACGCCTTCGTGAGCACGGCTAAGTGCCAGCTCCTCTTTGCCCTCAAGGTGCTCAACATGATGCCCGAGGAGAAGCTGGTTGAGGCCCTGGCTGCAGCCACCGAGAAGCAGAAGAAGGCCCTGGAGAAGTTGCTCCCGGCCTCCTCT
modifications: Human
Aβ40 Concentration [pM] [3, 4]: 378 ± 10 (232 ± 34) pM
Aβ42 Concentration [pM] [3, 4]: 88 ± 22 (45 ± 2) pM
Fold increase in Aβ42 versus vector control ([3]; column beside the Aβ40 concentration): 1.6
Fold increase in Aβ42 versus vector control ([3]; column beside the Aβ42 concentration): 2.0
